# B1: NEDD4-1 HECT domain (enzyme)
# chain: GPLGSRDYKRKYEFFRRKLKKQNDIPNKFEMKLRRATVLEDSYRRIMGVKRADFLKARLWIEFDGEKGLDYGGVAREWFFLISKEMFNPYYGLFEYSATDNYTLQINPNSGLCNEDHLSYFKFIGRVAGMAVYHGKLLDGFFIRPFYKMMLHKPITLHDMESVDSEYYNSLRWILENDPTELDLRFIIDEELFGQTHQHELKNGGSEIVVTNKNKKEYIYLVIQWRFVNRIQKQMAAFKEGFFELIPQDLIKIFDENELELLMCGLGDVDVNDWREHTKYKNGYSANHQVIQWFWKAVLMMDSEKRIRLLQFVTGTSRVPMNGFAELYGSNGPQSFTVEQWGTPEKLPRAHTCFNRLDLPPYESFEELWDKLQMAIENTQGFDGVD
# Biological target: ubiquitin (Homo sapiens (Human), UniProt P0CG48)
# Test: not stated how the value was obtained. It is named in the context of the fluorescence polarization assay.
binder,measurement,value
B1,Kd,11 µM
